The numbers were not newly measured in publication PMC4254573, which cites them from elsewhere.

The Kd is the concentration at which binding is half-saturated.

The target of one data set is sEGFR ECD (Homo sapiens) (UniProt P00533).
In data set [1] the target is EGFR ECD (Drosophila melanogaster) (UniProt P04412).

Regarding sEGFR ECD (from UniProt P00533), the Kd with sEGFR ECD (Homo sapiens) was 1 µM.

With EGFR ECD (from UniProt P04412), in data set [1], the Kd is 40 µM.
